How the values were obtained:
[1] = biological target: GARP S138G / TGF-β1 complex (human, UniProt Q14392 20-662; P01137 30-390); assay: flow cytometry on transfected 293T cells, 5 ug/ml; grade of Loss of binding read by footnote 2
Text: (§1) Resolution of the crystal structure of MHG-8 Fab/GARP/TGF-β1 complexes and analysis with the CONTACT software allowed the identification of 22 amino-acids in GARP, 8 amino-acids in LAP and 6 amino-acids in mature TGF-β1 that are located less than 5 Å away from an amino-acid of the light or heavy chain of the MHG-8 Fab (Tables 7a, b and c, and Table 8). Directed mutagenesis was used to construct plasmids encoding HA-tagged forms of GARP or TGF-β1 that are mutated at one, two, or three of these 36 positions (all mutations constructed are indicated in Table 8). […] Antibodies were used at a saturating concentration of 5 μg/ml for labeling. Binding of each antibody to a given mutant GARP/TGF-β1 complex was compared to their binding to wild type (WT) complexes, by determining an I_{m/wt} value (i.e. intensity of binding to mutant by comparison to WT). This value was calculated as follows: I_{m/wt} of antibody X=[Geom on mutant−Geom on control]/[Geom on WT−Geom on control]
(§2) The level of residual binding of anti-GARP or anti-LAP antibodies to each mutant was then calculated by comparison to WT, taking into account the expression levels of mutant and WT forms as measured with anti-HA antibodies. Residual binding was calculated as follows: Residual binding by an anti-GARP or anti-LAP antibody=[I_{m/wt} with anti-GARP or anti-LAP antibody]/[I_{m/wt} with anti-HA antibody]

[2] = biological target: T1, GARP Y137H/S138G/G139N / TGF-β1 complex (human, UniProt Q14392 20-662; P01137 30-390); assay: FACS 293T, 5 ug/ml, normalised to anti-HA
Text: as §1, §2

[3] = biological target: GARP / TGF-β1 K338E complex (human, UniProt Q14392 20-662; P01137 30-390); assay: FACS 293T, 5 ug/ml, normalised to anti-HA
Text: as §1, §2

[4] = biological target: T2, GARP R143Y / TGF-β1 complex (human, UniProt Q14392 20-662; P01137 30-390); assay: FACS 293T, 5 ug/ml, normalised to anti-HA
Text: as §1, §2

[5] = biological target: GARP R163E / TGF-β1 complex (human, UniProt Q14392 20-662; P01137 30-390); assay: FACS 293T, 5 ug/ml, normalised to anti-HA
Text: as §1, §2

[6] = biological target: GARP T162D / TGF-β1 complex (human, UniProt Q14392 20-662; P01137 30-390); assay: FACS 293T, 5 ug/ml, normalised to anti-HA
Text: as §1, §2

[7] = biological target: T3, GARP Y137H / TGF-β1 complex (human, UniProt Q14392 20-662; P01137 30-390); assay: FACS 293T, 5 ug/ml, normalised to anti-HA
Text: as §1, §2

[8] = biological target: T4, GARP / TGF-β1 Y336A complex (human, UniProt Q14392 20-662; P01137 30-390); assay: FACS 293T, 5 ug/ml, normalised to anti-HA
Text: as §1, §2

[9] = biological target: GARP / TGF-β1 Y284A complex (human, UniProt Q14392 20-662; P01137 30-390); assay: flow cytometry titration on transfected 293T cells; grade of Reduced avidity read by footnote 3
Experimental: (§3) Intensities of staining at each concentration of antibody relative to the maximal intensity measured at 5 μg/ml were determined as follows:
(§4) The relative staining intensities were plotted according to the concentration of antibody used for staining, and a non-linear regression analysis was used with the Prism software to determine an EC₅₀ value for binding of the antibody to the WT and to each of the various mutant GARP/TGF-β1 complexes. If the ratio between the EC₅₀ measured on the mutant and the EC₅₀ measured on the WT was >2, the mutation was considered to induce a reduced avidity for binding by the antibody. The ratio of EC₅₀ (mutant vs WT) for MHG-8 and LHG-10 are indicated below each mutation on FIG. 19, parts A and B, respectively.

[10] = biological target: T1, GARP Y137H/S138G/G139N / TGF-β1 complex; assay: as above
Experimental: as §3, §4

[11] = biological target: GARP T165A / TGF-β1 complex (human, UniProt Q14392 20-662; P01137 30-390); assay: as above
Experimental: as §3, §4

[12] = biological target: GARP R163E/T165A / TGF-β1 complex (human, UniProt Q14392 20-662; P01137 30-390); assay: flow cytometry on transfected 293T cells, 5 ug/ml; grade of Loss of binding read by footnote 2 (error bar crosses the 50% threshold)
Text: as §1, §2

[13] = biological target: T2, GARP R143Y / TGF-β1 complex; assay: as above
Text: as §1, §2

[14] = biological target: T3, GARP Y137H / TGF-β1 complex; assay: as above
Text: as §1, §2

[15] = biological target: T4, GARP / TGF-β1 Y336A complex; assay: as above
Text: as §1, §2

[16] = biological target: T5, recombinant soluble human GARP-TGFβ1 complex (human, UniProt Q14392 20-628; P01137 30-390); assay: SPR (Biacore), hGARP-TGFβ1 immobilised
T5 construct: co-expressed in HEK293E, purified by the Strep-Tag; TGFβ consists of LAP and mature TGFβ; also called shGARP-TGFβ; rhGARP-TGFβ
T5 sequence (Q14392 other isoform, or with tags, fused parts or gaps limits assumed, chain 1 of 2): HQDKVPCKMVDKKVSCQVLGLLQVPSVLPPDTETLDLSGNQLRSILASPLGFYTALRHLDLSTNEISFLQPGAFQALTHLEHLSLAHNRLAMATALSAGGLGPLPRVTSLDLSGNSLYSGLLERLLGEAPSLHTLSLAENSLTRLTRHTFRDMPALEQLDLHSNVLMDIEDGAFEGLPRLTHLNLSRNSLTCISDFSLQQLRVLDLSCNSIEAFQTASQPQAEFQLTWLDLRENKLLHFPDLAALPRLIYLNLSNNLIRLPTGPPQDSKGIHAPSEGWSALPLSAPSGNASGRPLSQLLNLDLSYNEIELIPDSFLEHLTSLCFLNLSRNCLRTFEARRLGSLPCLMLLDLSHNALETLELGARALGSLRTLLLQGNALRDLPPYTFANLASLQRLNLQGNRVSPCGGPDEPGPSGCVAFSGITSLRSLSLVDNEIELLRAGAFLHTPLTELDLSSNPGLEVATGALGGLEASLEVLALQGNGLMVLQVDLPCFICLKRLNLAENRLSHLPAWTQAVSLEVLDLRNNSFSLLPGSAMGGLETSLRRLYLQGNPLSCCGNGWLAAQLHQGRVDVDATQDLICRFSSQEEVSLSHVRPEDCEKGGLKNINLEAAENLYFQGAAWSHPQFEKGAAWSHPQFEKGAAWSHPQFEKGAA
T5 sequence (P01137 30-390 limits assumed, chain 2 of 2): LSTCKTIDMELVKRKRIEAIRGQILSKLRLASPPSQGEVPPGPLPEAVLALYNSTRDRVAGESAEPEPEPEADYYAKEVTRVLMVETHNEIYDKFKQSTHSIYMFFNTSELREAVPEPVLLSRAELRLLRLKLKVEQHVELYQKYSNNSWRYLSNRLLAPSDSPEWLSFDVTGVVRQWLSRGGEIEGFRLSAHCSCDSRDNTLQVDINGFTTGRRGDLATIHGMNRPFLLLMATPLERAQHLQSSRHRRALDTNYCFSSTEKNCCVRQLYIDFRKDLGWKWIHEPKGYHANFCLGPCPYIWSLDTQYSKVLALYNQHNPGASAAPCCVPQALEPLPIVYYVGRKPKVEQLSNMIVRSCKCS

T4 sequence (Q14392 20-662 limits assumed, chain 1 of 2): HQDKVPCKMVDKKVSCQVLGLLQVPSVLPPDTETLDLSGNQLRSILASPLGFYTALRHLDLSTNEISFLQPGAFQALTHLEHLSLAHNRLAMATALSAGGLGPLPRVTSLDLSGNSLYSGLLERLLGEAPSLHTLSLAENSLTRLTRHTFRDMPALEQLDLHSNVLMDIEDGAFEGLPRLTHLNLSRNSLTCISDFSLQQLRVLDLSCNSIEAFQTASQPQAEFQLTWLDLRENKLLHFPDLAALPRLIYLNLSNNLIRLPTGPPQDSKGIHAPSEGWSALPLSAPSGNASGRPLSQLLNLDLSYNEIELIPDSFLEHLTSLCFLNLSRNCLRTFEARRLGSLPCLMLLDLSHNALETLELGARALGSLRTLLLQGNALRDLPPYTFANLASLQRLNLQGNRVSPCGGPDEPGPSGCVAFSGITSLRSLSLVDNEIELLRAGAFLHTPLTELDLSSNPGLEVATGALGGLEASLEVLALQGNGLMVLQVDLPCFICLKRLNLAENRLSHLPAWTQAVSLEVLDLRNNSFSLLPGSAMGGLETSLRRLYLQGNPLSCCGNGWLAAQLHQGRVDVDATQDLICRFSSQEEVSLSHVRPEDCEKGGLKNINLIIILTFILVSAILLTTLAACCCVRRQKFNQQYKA
T4 sequence (P01137 30-390 Y336A limits assumed, chain 2 of 2): as the sequence (P01137 30-390 limits assumed, chain 2 of 2) above, with Y307A counted along it
T3 sequence (Q14392 20-662 Y137H limits assumed, chain 1 of 2): as the sequence (Q14392 20-662 limits assumed, chain 1 of 2) above, with Y118H counted along it
T3 sequence (P01137 30-390 limits assumed, chain 2 of 2): as the sequence (P01137 30-390 limits assumed, chain 2 of 2) above
T1 sequence (Q14392 20-662 Y137H/S138G/G139N limits assumed, chain 1 of 2): as the sequence (Q14392 20-662 limits assumed, chain 1 of 2) above, with Y118H, S119G, G120N counted along it
T1 sequence (P01137 30-390 limits assumed, stated change not applied, chain 2 of 2): as the sequence (P01137 30-390 limits assumed, chain 2 of 2) above
T2 sequence (Q14392 20-662 R143Y limits assumed, chain 1 of 2): as the sequence (Q14392 20-662 limits assumed, chain 1 of 2) above, with R124Y counted along it
T2 sequence (P01137 30-390 limits assumed, chain 2 of 2): as the sequence (P01137 30-390 limits assumed, chain 2 of 2) above
Sequence of GARP T165A / TGF-β1 complex (Q14392 20-662 T165A limits assumed, chain 1 of 2): as the sequence (Q14392 20-662 limits assumed, chain 1 of 2) above, with T146A counted along it
Sequence of GARP T165A / TGF-β1 complex (P01137 30-390 limits assumed, chain 2 of 2): as the sequence (P01137 30-390 limits assumed, chain 2 of 2) above
Sequence of GARP T162D / TGF-β1 complex (Q14392 20-662 T162D limits assumed, chain 1 of 2): as the sequence (Q14392 20-662 limits assumed, chain 1 of 2) above, with T143D counted along it
Sequence of GARP T162D / TGF-β1 complex (P01137 30-390 limits assumed, chain 2 of 2): as the sequence (P01137 30-390 limits assumed, chain 2 of 2) above
Sequence of GARP / TGF-β1 K338E complex (Q14392 20-662 limits assumed, chain 1 of 2): as the sequence (Q14392 20-662 limits assumed, chain 1 of 2) above
Sequence of GARP / TGF-β1 K338E complex (P01137 30-390 K338E limits assumed, chain 2 of 2): as the sequence (P01137 30-390 limits assumed, chain 2 of 2) above, with K309E counted along it
Sequence of GARP / TGF-β1 Y284A complex (Q14392 20-662 limits assumed, chain 1 of 2): as the sequence (Q14392 20-662 limits assumed, chain 1 of 2) above
Sequence of GARP / TGF-β1 Y284A complex (P01137 30-390 Y284A limits assumed, chain 2 of 2): as the sequence (P01137 30-390 limits assumed, chain 2 of 2) above, with Y255A counted along it
Sequence of GARP R163E / TGF-β1 complex (Q14392 20-662 R163E limits assumed, chain 1 of 2): as the sequence (Q14392 20-662 limits assumed, chain 1 of 2) above, with R144E counted along it
Sequence of GARP R163E / TGF-β1 complex (P01137 30-390 limits assumed, chain 2 of 2): as the sequence (P01137 30-390 limits assumed, chain 2 of 2) above
Sequence of GARP R163E/T165A / TGF-β1 complex (Q14392 20-662 R163E/T165A limits assumed, chain 1 of 2): as the sequence (Q14392 20-662 limits assumed, chain 1 of 2) above, with R144E, T146A counted along it
Sequence of GARP R163E/T165A / TGF-β1 complex (P01137 30-390 limits assumed, chain 2 of 2): as the sequence (P01137 30-390 limits assumed, chain 2 of 2) above
Sequence of GARP S138G / TGF-β1 complex (Q14392 20-662 S138G limits assumed, chain 1 of 2): as the sequence (Q14392 20-662 limits assumed, chain 1 of 2) above, with S119G counted along it
Sequence of GARP S138G / TGF-β1 complex (P01137 30-390 limits assumed, stated change not applied, chain 2 of 2): as the sequence (P01137 30-390 limits assumed, chain 2 of 2) above

residual binding on mutant by comparison to WT [1]: ≥ 50%
residual binding (% of WT) [2]: 6%
residual binding (% of WT) [3]: 15%
residual binding (% of WT) [4]: 68%
residual binding (% of WT) [5]: 48%
residual binding (% of WT) [6]: 49%
residual binding (% of WT) [7]: 62%
residual binding (% of WT) [8]: 56%
ratio of EC50 (mutant vs WT) [9]: ≤ 2 ratio
ratio of EC50 (mutant vs WT) [10]: > 2 ratio
ratio of EC50 (mutant vs WT) [11]: ≤ 2 ratio
residual binding on mutant by comparison to WT [12]: ≥ 50%
residual binding on mutant by comparison to WT [13]: ≥ 50%
residual binding on mutant by comparison to WT [14]: ≥ 50%
residual binding on mutant by comparison to WT [15]: ≥ 50%
Kd [16]: 0.131 nM
fold improvement of KD (reference LHG-10) [16]: 1 fold
fold improvement of ka (reference LHG-10) [16]: 1 fold
fold improvement of kd (reference LHG-10) [16]: 1 fold
koff [16]: 3.12e-05 s⁻¹
kon [16]: 239000 M⁻¹ s⁻¹
B1: LHG-10 (antibody, human IgG1, V domains shown)
VH: EVQLVQPGAELRNSGASVKVSCKASGYRFTSYYIDWVRQAPGQGLEWMGRIDPEDGGTKYAQKFQGRVTFTADTSTSTAYVELSSLRSEDTAVYYCARNEWETVVVGDLMYEYEYWGQGTQVTVSS
VL: DIQMTQSPTSLSASLGDRVTITCQASQSISSYLAWYQQKPGQAPKLLIYGASRLQTGVPSRFSGSGSGTSFTLTISGLEAEDAGTYYCQQYDSLPVTFGQGTKVELK
notes: llama-derived V regions in a full human IgG1
